Test results as given in FireProtDB (doi:10.1021/bi027202n).
Values joined by “and” are separate entries in the source; they are usually repeats but may differ in a detail not shown here. Equal entries are not always repeated.

Details: Geobacillus stearothermophilus, pH 5.4, CD, sodium phosphate 10 mM, reversible: yes(>90%), whole UniProt chain shown; for denaturant m value / denaturant midpoint (higher = more stable) / unfolding free energy: 25 °C, Urea

B1: Large ribosomal subunit protein bL9 wild type, P02417 (protein)
chain: MKVIFLKDVKGKGKKGEIKNVADGYANNFLFKQGLAIEATPANLKALEAQKQKEQRQAAEELANAKKLKEQLEKLTVTIPAKAGEGGRLFGSITSKQIAESLQAQHGLKLDKRKIELADAIRALGYTNVPVKLHPEVTATLKVHVTEQK
denaturant m value (sodium chloride 100 mM): 0.72 kcal/mol/M and 0.64 kcal/mol/M | denaturant midpoint (higher = more stable) (sodium chloride 100 mM): 6.18 M and 3.16 M | unfolding free energy (sodium chloride 100 mM): 4.45 kcal/mol and 2.02 kcal/mol | denaturant m value (sodium chloride 750 mM): 0.62 kcal/mol/M and 0.66 kcal/mol/M | denaturant midpoint (higher = more stable) (sodium chloride 750 mM): 7.76 M and 3.64 M | unfolding free energy (sodium chloride 750 mM): 4.81 kcal/mol and 2.4 kcal/mol | Tm (Thermal, sodium chloride 100 mM): 56 °C
